In patent publication US20160122742A1 (published 2016):
Blank lines part the entries; values can stand above or below the molecule they belong to.

Assays:
[1] = target: T1, Flag tagged ORC5 (UniProt O43913)
T1 sequence: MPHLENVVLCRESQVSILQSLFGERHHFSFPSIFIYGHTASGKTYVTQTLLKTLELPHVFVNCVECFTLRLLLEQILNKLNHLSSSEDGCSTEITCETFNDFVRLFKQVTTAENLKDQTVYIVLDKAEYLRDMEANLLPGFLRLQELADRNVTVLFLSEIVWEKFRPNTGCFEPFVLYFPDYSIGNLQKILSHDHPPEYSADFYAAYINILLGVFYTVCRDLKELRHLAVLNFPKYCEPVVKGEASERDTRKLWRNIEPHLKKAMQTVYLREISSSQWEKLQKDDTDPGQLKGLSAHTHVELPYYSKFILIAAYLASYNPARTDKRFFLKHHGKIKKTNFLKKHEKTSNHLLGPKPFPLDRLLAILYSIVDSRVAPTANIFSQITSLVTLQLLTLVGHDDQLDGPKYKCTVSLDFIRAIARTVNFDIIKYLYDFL

[2] = target: T2, Flag tagged ORC1 (N-terminal Flag, pCS2-Flag)
T2 chain: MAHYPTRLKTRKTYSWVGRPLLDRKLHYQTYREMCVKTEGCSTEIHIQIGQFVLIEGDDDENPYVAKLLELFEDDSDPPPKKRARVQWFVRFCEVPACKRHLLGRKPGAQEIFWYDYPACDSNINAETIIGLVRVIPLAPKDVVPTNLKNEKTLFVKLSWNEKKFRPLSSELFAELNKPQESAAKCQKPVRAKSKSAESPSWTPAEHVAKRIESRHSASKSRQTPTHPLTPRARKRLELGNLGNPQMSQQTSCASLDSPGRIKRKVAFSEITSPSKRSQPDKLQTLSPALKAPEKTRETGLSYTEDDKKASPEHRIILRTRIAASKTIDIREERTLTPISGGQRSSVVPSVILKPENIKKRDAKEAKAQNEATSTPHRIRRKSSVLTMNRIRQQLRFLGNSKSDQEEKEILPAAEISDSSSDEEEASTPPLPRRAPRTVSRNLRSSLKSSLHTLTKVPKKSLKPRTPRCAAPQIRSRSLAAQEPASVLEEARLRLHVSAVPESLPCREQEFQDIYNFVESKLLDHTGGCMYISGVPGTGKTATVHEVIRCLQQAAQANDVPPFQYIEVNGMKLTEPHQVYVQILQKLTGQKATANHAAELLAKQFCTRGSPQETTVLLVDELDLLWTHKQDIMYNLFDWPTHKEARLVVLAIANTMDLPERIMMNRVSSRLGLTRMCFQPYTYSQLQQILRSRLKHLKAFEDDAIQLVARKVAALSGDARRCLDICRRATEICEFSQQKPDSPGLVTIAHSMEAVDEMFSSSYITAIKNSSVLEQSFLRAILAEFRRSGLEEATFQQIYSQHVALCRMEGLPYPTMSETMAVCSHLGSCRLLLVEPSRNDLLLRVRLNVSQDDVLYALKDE

[3] = target: T3, Flag tagged ORC3, Q9UBD5
T3 chain: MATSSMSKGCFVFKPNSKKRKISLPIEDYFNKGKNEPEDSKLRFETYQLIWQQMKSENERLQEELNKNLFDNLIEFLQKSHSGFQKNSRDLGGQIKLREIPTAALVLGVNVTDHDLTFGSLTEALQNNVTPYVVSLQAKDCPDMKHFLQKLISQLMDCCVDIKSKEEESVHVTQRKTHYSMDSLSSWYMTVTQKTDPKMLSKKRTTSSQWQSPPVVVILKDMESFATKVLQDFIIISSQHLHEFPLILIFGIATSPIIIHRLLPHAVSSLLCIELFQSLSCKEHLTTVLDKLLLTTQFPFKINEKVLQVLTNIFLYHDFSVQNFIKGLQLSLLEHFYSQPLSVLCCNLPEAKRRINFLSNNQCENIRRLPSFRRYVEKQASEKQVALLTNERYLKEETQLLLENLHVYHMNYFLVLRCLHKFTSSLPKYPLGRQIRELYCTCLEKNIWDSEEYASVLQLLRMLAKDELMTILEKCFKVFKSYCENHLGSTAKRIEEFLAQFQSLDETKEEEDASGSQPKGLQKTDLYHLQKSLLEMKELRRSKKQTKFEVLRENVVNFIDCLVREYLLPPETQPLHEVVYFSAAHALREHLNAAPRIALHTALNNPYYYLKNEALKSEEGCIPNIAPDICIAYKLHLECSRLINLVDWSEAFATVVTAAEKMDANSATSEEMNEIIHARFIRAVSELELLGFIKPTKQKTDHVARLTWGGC

[4] = target: T4, Flag tagged ORC5, O43913
T4 chain: T1 sequence

[5] = target: T5, human ORC1 with C-terminal Flag-HA tag (human, UniProt Q13415 1-861); experiment: TAP-TAG (tandem Flag/HA immunoprecipitation from HeLa S3 nuclear extract), silver staining and mass spectrometry
T5 construct: Stably expressed in HeLa S3 cells; also called ORC1 FLAG-HA; FLAG-HA tagged ORC1; not shown: in-frame C-terminal Flag-HA tag of pOZ-FH-C
T5 sequence: T2 chain
Experimental: The beads were washed twice with 1 mL of HA-IP Buffer (150 mM KCl; 20 mM Tris pH 7.5 0.05% NP40; 0.1% Tween; 10% Glycerol; 5 mM MgCl₂; 1 mM DTT and 10 mM PMSF). After the last centrifugation, beads were resuspended in HA-IP Buffer (1 vol of Beads). Extracts were incubated with Flag beads for 4 h with agitation at 4 C. Beads were pelleted (3 min at 3000 rpm 4° C.). Beads were washed 5 times with HA IP Buffer: Beads are pelleted (3K 3 min 4° C.) and the supernatant discarded. Complexes were eluted from the beads by incubating in 3 beads volume of HA IP Buffer supplemented with Flag peptide (200 μg/mL, Sigma) for 1 hour at 4 C with agitation. The supernatant was kept on ice and a second elution was conducted. The eluates were pooled and subjected to an anti-HA immunoprecipitation. Before, anti-HA coupled agarose beads (SantaCruz Biotechnology) were washed with glycine buffer as described above. 10 μL of beads was used per IP. Flag eluates were incubated with anti-HA beads for 2 hours at 4 C with agitation. Beads were pelleted (3 min at 3000 rpm 4° C.). Beads were washed 5 times with HA IP Buffer: Beads are pelleted (3K 3 min 4° C.) and the supernatant discarded. Complexes were eluted from the beads by incubating in 3 beads volume of HA IP Buffer supplemented with HA peptide (400 μg/mL, Roche) for 1 hour at 4 C with agitation. The supernatant was keep on ice and a second elution was conducted. […]

[6] = target: T6, Flag tagged ORC1 (N-terminal Flag, pCS2-Flag) (human, UniProt Q13415 1-861); experiment: anti-Flag co-immunoprecipitation from U2OS cells, western blot with anti-Myc
T6 construct: Transiently expressed in U2OS cells; also called Flag-ORC1
T6 sequence: T2 chain
Experimental: For cell lysis, immunoprecipitation and western blotting were performed following standard methods. Briefly, cells were lysed in TK300 lysis buffer (20 mM Tris-HCl pH 7.9; 300 mM KCl, 5 mM MgCl2, 10% glycerol; 0.5% NP-40 plus protease inhibitors cocktail) on ice for 30 min. The protein concentration of the clarified lysates was estimated using the BCA method (Pierce). For immunoprecipitation experiments, equivalent amounts of protein samples were incubated at 4° C. with anti-Flag coupled agarose beads (Sigma Aldrich) for 4 h. After extensive washing with TK300 lysis buffer, bound proteins were eluted in boiling Laemmli buffer. Samples were runs on pre-cast gradient gel (NuPage Novex, Invitrogen and Mini-PROTEAN TGX, Biorad) and transferred to nitrocellulose membrane.
U20S cells were transiently transfected with plasmids coding for Myc-tagged WT Obi1 or mutated Obi1, and also co-transfected with plasmids coding for Flag-ORC1. 48 hours post-transfection, cells were lyzed and the soluble fraction was subjected to an anti-Flag immunoprecipitation (IP:Flag—FIG. 24B). Ectopic proteins were detected by western blotting. Under these conditions, specific Obi1/ORC1 complex is detected in the immunoprecipitate. In contrast, no association is observed between ORC1 and the mutated Obi1 protein (FIG. 24B).

Molecule: Xenopus Myc6-tagged Obi1 WT
ubiquitination of Flag-ORC5 (high-molecular weight ubiquitin adducts after anti-Flag IP) [1]: both human and xenopus Obi1, sharing 35% identity of their amino acid sequence, are able to ubiquitinate ORC5

B2: human Myc6-tagged Obi1 WT (protein)
chain: MAQTVQNVTLSLTLPITCHICLGKVRQPVICINNHVFCSICIDLWLKNNSQCPACRVPITPENPCKEIIGGTSESEPMLSHTVRKHLRKTRLELLHKEYEDEIDCLQKEVEELKSKNLSLESQIKTILDPLTLVQGNQNEDKHLVTDNPSKINPETVAEWKKKLRTANEIYEKVKDDVDKLKEANKKLKLENGGLVRENLRLKAEVDNRSPQKFGRFAVAALQSKVEQYERETNRLKKALERSDKYIEELESQVAQLKNSSEEKEAMNSICQTALSADGKGSKGSEEDVVSKNQGDSARKQPGSSTSSSSHLAKPSSSRLCDTSSARQESTSKADLNCSKNKDLYQEQVEVMLDVTDTSMDTYLEREWGNKPSDCVPYKDEELYDLPAPCTPLSLSCLQLSTPENRESSVVQAGGSKKHSNHLRKLVFDDFCDSSNVSNKDSSEDDISRSENEKKSECFSSPKTGFWDCCSTSYAQNLDFESSEGNTIANSVGEISSKLSEKSGLCLSKRLNSIRSFEMNRTRTSSEASMDAAYLDKISELDSMMSESDNSKSPCNNGFKSLDLDGLSKSSQGSEFLEEPDKLEEKTELNLSKGSLTNDQLENGSEWKPTSFFLLSPSDQEMNEDFSLHSSSCPVTNEIKPPSCLFQTEFSQGILLSSSHRLFEDQRFGSSLFKMSSEMHSLHNHLQSPWSTSFVPEKRNKNVNQSTKRKIQSSLSSASPSKATKS
polyubiquitination of Flag-ORC5 (HA-ubiquitin adducts after anti-Flag IP) [4]: only the full length Obi1 protein is able to polyubiquitinate ORC5
ubiquitination of Flag-ORC5 (high-molecular weight ubiquitin adducts after anti-Flag IP) [4]: both human and xenopus Obi1, sharing 35% identity of their amino acid sequence, are able to ubiquitinate ORC5

Now from value to molecule, other results behind:

binding result [5]: binds
B1: ORC Ubiquitin-ligase 1 (OBI1), human, endogenous protein of the cells (enzyme)
chain: B2 chain
notes: Untagged endogenous Obi1 of HeLa S3 or U2OS cells, co-purified with tagged baits or acting on transfected ORC subunits; also called RNF219; Obi1/RFN219
ubiquitination of Flag tagged ORC subunits (HA-ubiquitin adducts after anti-Flag IP) [2]: OC1, ORC3 and ORC5 are ubiquitinated in presence of Obi1
poly-ubiquitination of Flag ORC3 after siRNA knockdown of Obi1 [3]: cells that does not express Obi1 are not able to poly-ubiquitinate either ORC3 or ORC5
ubiquitination of Flag tagged ORC subunits (HA-ubiquitin adducts after anti-Flag IP) [3]: OC1, ORC3 and ORC5 are ubiquitinated in presence of Obi1, and in particular that ORC3 and ORC5 show strong polyubiquitylation
poly-ubiquitination of Flag ORC5 after siRNA knockdown of Obi1 [4]: cells that does not express Obi1 are not able to poly-ubiquitinate either ORC3 or ORC5
ubiquitination of Flag tagged ORC subunits (HA-ubiquitin adducts after anti-Flag IP) [4]: OC1, ORC3 and ORC5 are ubiquitinated in presence of Obi1, and in particular that ORC3 and ORC5 show strong polyubiquitylation

binding result [6]: no binding
B3: Myc-tagged mutated Obi1 (truncated Obi1 protein of the Meier-Gorlin patient) (other)
chain: MAQTVQNVTLSLTLPITCHICLGKVRQPVICINNHVFCSICIDLWLKNNSQCPACRVPITPENPCKEIIGGTSESEPMLSHTVRKHLRKTRLELLHKEYEDEIDCLQKEVEELKSKNLSLESQIKTILDPLTLVQGNQNEDKHLVTDNPSKINPETVAEWKKKLRTANEIYEKVKDDVDKLKEANKKLKLENGGLVRENLRLKAEVDNRSPQKFGRFAVAALQSKVEQYERETNRLKKALERSDKYIEELESQVAQLKNSSEEKEAMNSICQTALSADGKGSKGSEEDVVSKNQGDSARKQPGSSTSSSSHLAKPSSSRLCDTSSARQESTSKADLNCSKNKDLYQEQVEVMLDVTDTSMDTYLEREWGNKPSDCVPYKDEELYDLPAPCTPLSLSCLQLSTPENRESSVVQAGGSKKHSNHLRKLVFDDFCDSSNVSNKDSSEDDISRSENEKKSVFFFPKDRILGLLFHKLCPKLRF
notes: also called C.1370_1371delAA,P.GLU457VALFSX24; not shown: Myc tag
